Assay results from patent publication US20250011428A1.
Substitutions are numbered along the chain they refer to.

B1: CD3_2 (antibody, human IgG1, lambda)
heavy: EVQLVESGGGLVQPGGSLKLSCAASGFTFNTYAMNWVRQASGKGLEWVGRIRSKYNNYATYYADSVKDRFTISRDDSKSTLYLQMNSLKTEDTAVYYCVRHGNFGNSYVSWFAYWGQGTLVTVSSASTKGPSVFPLAPSSKSTSGGTAALGCLVKDYFPEPVTVSWNSGALTSGVHTFPAVLQSSGLYSLSSVVTVPSSSLGTQTYICNVNHKPSNTKVDKRVEPKSCDKTHTCPPCPAPELCCHPSVFLFPPKPKDTLMISRTPEVTCVVVGLRHEDPEVKFNWYVDGVEVHNAKTKPREEQYCGCYRVVSVLTVLHQDWLNGKEYKCKVSNKALPAPIEKTISKAKGQPREPQVYTLPPSRDELTKNQVSLTCLVKGFYPSDIAVEWESNGQPENNYKTTPPVLDSDGSFFLYSKLTVDKSRWQQGNVFSCSVMHEALHNHYTQKSLSLSPGK
light: QAVVTQEPSLTVSPGGTVTLTCRSSTGAVTTSNYANWVQQKPGQAPRGLIGGTNKRAPWTPARFSGSLLGDKAALTLSGAQPEDEAEYFCALWYSNLWVFGGGTKLTVLGQPKAAPSVTLFPPSSEELQANKATLVCLISDFYPGAVTVAWKADSSPVKAGVETTTPSKQSNNKYAASSYLSLTPEQWKSHRSYSCQVTHEGSTVEKTVAPTECS
B2: CD3_4 (antibody, human IgG1, lambda)
heavy: B1 heavy with G273D, L274V, R275S
light: B1 light
B3: CD3_3 (antibody, human IgG1, lambda)
heavy: B1 heavy with V272T, H276D
light: B1 light
B4: IgG4_CD3_6_YTE (antibody)
heavy: EVQLVESGGGLVQPGGSLKLSCAASGFTFNTYAMNWVRQASGKGLEWVGRIRSKYNNYATYYADSVKDRFTISRDDSKSTLYLQMNSLKTEDTAVYYCVRHGNFGNSYVSWFAYWGQGTLVTVSSASTKGPSVFPLAPCSRSTSESTAALGCLVKDYFPEPVTVSWNSGALTSGVHTFPAVLQSSGLYSLSSVVTVPSSSLGTKTYTCNVDHKPSNTKVDKRVESKYGPPCPSCPAPEFCCGPSVFLFPPKPKDTLYITREPEVTCVVVDVSQEDPEVQFNWYVDGVEVHNAKTKPREEQFNSTYRVVSVLTVLHQDWLNGKEYKCKVSNKGLPSSIEKTISKAKGQPREPQVYTLPPSQEEMTKNQVSLTCLVKGFYPSDIAVEWESNGQPENNYKTTPPVLDSDGSFFLYSRLTVDKSRWQEGNVFSCSVMHEALHNHYTQKSLSLSL
light: B1 light
B5: IgG4_CD3_8_YTE (antibody)
heavy: B4 heavy with C240L
light: B1 light
B6: CD3_2_YTE (antibody, human IgG1, lambda)
heavy: B1 heavy with M260Y, S262T, T264E
light: B1 light
B7: CD3_DANAPA_YTE (antibody, human IgG1, lambda, N297A)
heavy: EVQLVESGGGLVQPGGSLKLSCAASGFTFNTYAMNWVRQASGKGLEWVGRIRSKYNNYATYYADSVKDRFTISRDDSKSTLYLQMNSLKTEDTAVYYCVRHGNFGNSYVSWFAYWGQGTLVTVSSASTKGPSVFPLAPSSKSTSGGTAALGCLVKDYFPEPVTVSWNSGALTSGVHTFPAVLQSSGLYSLSSVVTVPSSSLGTQTYICNVNHKPSNTKVDKRVEPKSCDKTHTCPPCPAPELLGGPSVFLFPPKPKDTLYITREPEVTCVVVAVSHEDPEVKFNWYVDGVEVHNAKTKPREEQYASTYRVVSVLTVLHQDWLNGKEYKCKVSNKALAAPIEKTISKAKGQPREPQVYTLPPSRDELTKNQVSLTCLVKGFYPSDIAVEWESNGQPENNYKTTPPVLDSDGSFFLYSKLTVDKSRWQQGNVFSCSVMHEALHNHYTQKSLSLSPGK
light: B1 light
B8: IgG4_CD3_8 (antibody)
heavy: B4 heavy with C240L, Y257M, T259S, E261T
light: B1 light
B9: IgG4_CD3_WT_YTE (antibody)
heavy: B4 heavy with C240L, C241G
light: B1 light
B10: IgG4_CD3_6 (antibody)
heavy: B4 heavy with Y257M, T259S, E261T
light: B1 light
B11: IgG4_CD3_S228P_YTE (antibody)
heavy: B4 heavy with S233P, C240L, C241G
light: B1 light
B12: CD3_1_YTE (antibody, human IgG1, lambda)
heavy: B1 heavy with S247R, M260Y, S262T, T264E, V272T, H276D, R309S
light: B1 light
B13: CD3_3_YTE (antibody, human IgG1, lambda)
heavy: B1 heavy with M260Y, S262T, T264E, V272T, H276D
light: B1 light
B14: IgG4_CD3_9_YTE (antibody)
heavy: B4 heavy with C241G
light: B1 light
B15: CD3_1 (antibody, human IgG1, lambda)
heavy: B1 heavy with S247R, V272T, H276D, R309S
light: B1 light
B16: CD3_5 (antibody, human IgG1, lambda)
heavy: B1 heavy with H245G, G273D, L274V, R275S, G306S
light: B1 light
B17: CD3_5_YTE (antibody, human IgG1, lambda)
heavy: B7 heavy with L243C, G244C, A273D, A305C, T307C, A337P
light: B1 light
B18: CD3_4_YTE (antibody, human IgG1, lambda)
heavy: B1 heavy with M260Y, S262T, T264E, G273D, L274V, R275S
light: B1 light

molecular target: hC1q (human) (UniProt P02745); assay: SPR Biacore T200; IgG amine-coupled on CM5, hC1q as analyte; response normalized to parental (=100)
Sequence (P02745 23-245 limits assumed, chain 1 of 3): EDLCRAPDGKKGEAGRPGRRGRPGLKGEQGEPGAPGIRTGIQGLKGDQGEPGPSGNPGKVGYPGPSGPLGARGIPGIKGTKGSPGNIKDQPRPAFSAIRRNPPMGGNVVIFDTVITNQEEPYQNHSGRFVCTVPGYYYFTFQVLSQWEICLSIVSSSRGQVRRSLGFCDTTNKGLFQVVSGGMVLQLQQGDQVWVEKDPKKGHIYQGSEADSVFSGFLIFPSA
Sequence (P02746 28-253 limits assumed, chain 2 of 3, further chain): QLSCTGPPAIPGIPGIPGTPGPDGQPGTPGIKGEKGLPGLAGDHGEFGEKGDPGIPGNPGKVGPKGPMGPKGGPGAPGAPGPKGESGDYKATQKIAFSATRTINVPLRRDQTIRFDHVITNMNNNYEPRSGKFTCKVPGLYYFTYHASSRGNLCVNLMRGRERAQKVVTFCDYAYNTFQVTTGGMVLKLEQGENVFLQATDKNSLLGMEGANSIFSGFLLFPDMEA
Sequence (P02747 29-245 limits assumed, chain 3 of 3, further chain): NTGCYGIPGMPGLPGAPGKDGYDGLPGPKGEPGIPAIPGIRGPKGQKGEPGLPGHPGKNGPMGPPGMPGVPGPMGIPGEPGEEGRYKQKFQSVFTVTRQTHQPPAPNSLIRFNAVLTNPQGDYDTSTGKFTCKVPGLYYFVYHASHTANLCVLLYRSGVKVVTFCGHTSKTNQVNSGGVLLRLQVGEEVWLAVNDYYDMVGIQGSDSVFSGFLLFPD

| Maximum response at 20 nM hC1q (RU) | Binder |
| --- | --- |
| 7 | B1 |
| 9 | B2 |
| 7 | B3 |

molecular target: Gamma receptors FcγRI, FcγRII, and FcγRIII expressed on THP-1 cells; assay: cell-based or functional assay

| Maximum response in RGA assay (LU) | Binder |
| --- | --- |
| 25500 | B1 |
| 24900 | B2 |
| 7910 | B4 |
| 6450 | B5 |
| 11900 | B6 |
| 12300 | B7 |
| 7040 | B8 |
| 31800 | B9 |
| 12000 | B10 |
| 34900 | B11 |
| 12000 | B12 |
| 13100 | B13 |
| 5610 | B14 |
| 24700 | B15 |
| 23200 | B3 |
| 19900 | B16 |
| 13100 | B17 |
| 16500 | B18 |
